This data set addresses huPrP(23-110) (human) (UniProt P04156). The conditions noted are these: FRET: 25 mM Tris-HCl pH 7.5, 30 mM NaCl, 0.2 mM MgCl2, 20 C.

Sequence of huPrP(23-110) (human) (P04156 23-110): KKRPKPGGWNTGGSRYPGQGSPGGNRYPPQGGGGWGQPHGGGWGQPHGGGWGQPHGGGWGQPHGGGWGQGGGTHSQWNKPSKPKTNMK

Regarding cTAR, the Ka was greater than 1e+07 M⁻¹.

Values taken from publication PMC3201874.
